Reference: the supplement of paper PMC10567573

B1: EHMT1 (parent)
chain: SARQGELQKVLLMLVDGIDPNFKM

Variants of: B1
Test: protein stability index of a GFP-peptide fusion (GPS, HEK-293T) (PSI 1-6); higher = more stable
Conditions: c terminus: a fixed tail appended
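Further: lentivirally expressed fusions sorted by FACS into six bins by GFP to DsRed ratio, PSI derived from sequencing read proportions per bin multiplied by bin number.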

Going from SARQGELQQVLLMLVDGIDPNFKM [K9Q] to SARQGELQSVLLMLVDGIDPNFKM [K9S], the protein stability index rises from 2.37 to 2.79.

SARQGELQDVLLMLVDGIDPNFKM [K9D] and SARQGELQHVLLMLVDGIDPNFKM [K9H] are the same in protein stability index: 1.62 for the first, 1.62 for the second.

Compared with SARQGELQRVLLMLVDGIDPNFKM [K9R], SARQGELQVVLLMLVDGIDPNFKM [K9V] is higher in protein stability index: 1.68 for the first, 4.22 for the second.

Compared with SARQGELQPVLLMLVDGIDPNFKM [K9P], SARQGELQKVLLMQVDGIDPNFKM [L14Q] is higher in protein stability index: 1.95 for the first, 2.54 for the second.

Going from SARQGELQKVLLMDVDGIDPNFKM [L14D] to SARQGELQKVLLMGVDGIDPNFKM [L14G], the protein stability index falls from 3.47 to 2.36.

Going from SARQGELQKVLLMAVDGIDPNFKM [L14A] to SARQGELQKVLLMYVDGIDPNFKM [L14Y], the protein stability index falls from 2.39 to 1.76.

First: SARQGELQKVLLMRVDGIDPNFKM [L14R]
Second: SARQGELQKVLLMLVMGIDPNFKM [D16M]
The protein stability index of the first is lower: 2.61 for the first, 2.7 for the second.

Compared with SARQGELQKVLLMLVNGIDPNFKM [D16N], SARQGELQKVLLMLVLGIDPNFKM [D16L] is lower in protein stability index: 2.72 for the first, 2.31 for the second.

Going from SARQGELQKVLLMLVCGIDPNFKM [D16C] to SARQGELQKVLLMLVWGIDPNFKM [D16W], the protein stability index rises from 1.61 to 1.96.

Compared with SARQGELQKVLLMLVFGIDPNFKM [D16F], SARQGELQKVLLMLVDGIDPMFKM [N21M] is higher in protein stability index: 1.6 for the first, 2.24 for the second.

Going from SARQGELQKVLLMLVDGIDPTFKM [N21T] to SARQGELQKVLLMLVDGIDPHFKM [N21H], the protein stability index falls from 1.98 to 1.97.

Compared with SARQGELQKVLLMLVDGIDPLFKM [N21L], SARQGELQKVLLMLVDGIDPQFKM [N21Q] is lower in protein stability index: 3.55 for the first, 1.41 for the second.

Compared with SARQGELQKVLLMLVDGIDPWFKM [N21W], SARQGELQKVLLMLVDGIDPDFKM [N21D] is lower in protein stability index: 3.96 for the first, 1.41 for the second.

Compared with SARQGELQKVLLMLVDGIDPYFKM [N21Y], SARQGELQKVLLMLVDGIDPNSKM [F22S] is lower in protein stability index: 2.93 for the first, 2.71 for the second.

First: SARQGELQKVLLMLVDGIDPNYKM [F22Y]
Second: SARQGELQKVLLMLVDGIDPNRKM [F22R]
The protein stability index of the first is lower: 1.39 for the first, 1.52 for the second.

Going from SARQGELQKVLLMLVDGIDPNNKM [F22N] to SARQGELQKVLLMLVDGIDPNMKM [F22M], the protein stability index falls from 1.56 to 1.13.

Compared with SARQGELQKVLLMLVDGIDPNAKM [F22A], SARQGELQKVLLMLVDGIDPNIKM [F22I] is higher in protein stability index: 1.65 for the first, 2.09 for the second.

Going from SARQGELQKVLLMLVDGIDPNVKM [F22V] to SARQGELQKVLLMLVDGIDPNKKM [F22K], the protein stability index rises from 1.18 to 1.89.

Going from SARQGELQKVLLMLVDGIDPNLKM [F22L] to SARQGELQKVLLMLVDGIDPNQKM [F22Q], the protein stability index falls from 1.83 to 1.76.

First: SARQGELQKVLLMLVDGIDPNDKM [F22D]
Second: SARQGELQKVLLMLVDGIDPNFKT [M24T]
The protein stability index of the first is higher: 2.01 for the first, 1.42 for the second.

Compared with SARQGELQKVLLMLVDGIDPNFKE [M24E], SARQGELQKVLLMLVDGIDPNFKH [M24H] is lower in protein stability index: 2.18 for the first, 1.19 for the second.

Going from SARQGELQKVLLMLVDGIDPNFKD [M24D] to SARQGELQKVLLMLVDGIDPNFKC [M24C], the protein stability index falls from 3.33 to 2.05.

Going from SARQGELQKVLLMLVDGIDPNFKP [M24P] to SARQGELQKVLLMLVDGIDPNFKK [M24K], the protein stability index falls from 2.6 to 2.42.

Going from SARQGELQKVLLMLVDGIDPNFKR [M24R] to SARQGELQKVLLMLVDGIDPNFKI [M24I], the protein stability index falls from 1.8 to 1.77.

Compared with SARQGELQKVLLMLVDGIDPNFKA [M24A], SARQGELQKVLLMLVDGIDPNFKG [M24G] is lower in protein stability index: 2.04 for the first, 1.23 for the second.

First: SKRQGELQKVLLMLVDGIDPNFKM [A2K]
Second: SNRQGELQKVLLMLVDGIDPNFKM [A2N]
The protein stability index of the first is lower: 1.22 for the first, 3.47 for the second.

Compared with SLRQGELQKVLLMLVDGIDPNFKM [A2L], SHRQGELQKVLLMLVDGIDPNFKM [A2H] is lower in protein stability index: 3.91 for the first, 2.27 for the second.

Going from SVRQGELQKVLLMLVDGIDPNFKM [A2V] to SARPGELQKVLLMLVDGIDPNFKM [Q4P], the protein stability index rises from 1.75 to 2.15.

Going from SARYGELQKVLLMLVDGIDPNFKM [Q4Y] to SARSGELQKVLLMLVDGIDPNFKM [Q4S], the protein stability index falls from 1.94 to 1.53.

Compared with SARAGELQKVLLMLVDGIDPNFKM [Q4A], SAREGELQKVLLMLVDGIDPNFKM [Q4E] is lower in protein stability index: 2.27 for the first, 1.94 for the second.

Compared with SARNGELQKVLLMLVDGIDPNFKM [Q4N], SARQGELIKVLLMLVDGIDPNFKM [Q8I] is higher in protein stability index: 1.6 for the first, 2.01 for the second.

First: SARQGELEKVLLMLVDGIDPNFKM [Q8E]
Second: SARQGELYKVLLMLVDGIDPNFKM [Q8Y]
The protein stability index of the first is higher: 2.73 for the first, 1.76 for the second.

Compared with SARQGELLKVLLMLVDGIDPNFKM [Q8L], SARQGELGKVLLMLVDGIDPNFKM [Q8G] is lower in protein stability index: 3.28 for the first, 2.25 for the second.

First: EARQGELQKVLLMLVDGIDPNFKM [S1E]
Second: PARQGELQKVLLMLVDGIDPNFKM [S1P]
The protein stability index of the first is lower: 1.66 for the first, 1.83 for the second.

Compared with RARQGELQKVLLMLVDGIDPNFKM [S1R], MARQGELQKVLLMLVDGIDPNFKM [S1M] is lower in protein stability index: 2.2 for the first, 1.42 for the second.

First: IARQGELQKVLLMLVDGIDPNFKM [S1I]
Second: HARQGELQKVLLMLVDGIDPNFKM [S1H]
The protein stability index of the first is lower: 1.39 for the first, 2.42 for the second.

Going from KARQGELQKVLLMLVDGIDPNFKM [S1K] to NARQGELQKVLLMLVDGIDPNFKM [S1N], the protein stability index rises from 2.31 to 2.67.

Compared with WARQGELQKVLLMLVDGIDPNFKM [S1W], SARQGELQKVLLMLVDGIAPNFKM [D19A] is higher in protein stability index: 2.93 for the first, 3.05 for the second.

Compared with SARQGELQKVLLMLVDGISPNFKM [D19S], SARQGELQKVLLMLVDGIYPNFKM [D19Y] is higher in protein stability index: 2.5 for the first, 2.73 for the second.

Going from SARQGELQKVLLMLVDGITPNFKM [D19T] to SARQGELQKVLLMLVDGINPNFKM [D19N], the protein stability index falls from 3.29 to 1.64.

First: SARQGELQKVLLMLVDGIDRNFKM [P20R]
Second: SARQGELQKVLLMLVDGIDGNFKM [P20G]
The protein stability index of the first is higher: 1.5 for the first, 1.09 for the second.

Compared with SARQGELQKVLLMLVDGIDMNFKM [P20M], SARQGELQKVLLMLVDGIDKNFKM [P20K] is lower in protein stability index: 2.91 for the first, 1.76 for the second.

Compared with SARQGELQKVLLMLVDGIDANFKM [P20A], SARQGELQKVLLMLVDGIDFNFKM [P20F] is lower in protein stability index: 2.66 for the first, 2.59 for the second.

Going from SARQIELQKVLLMLVDGIDPNFKM [G5I] to SARQCELQKVLLMLVDGIDPNFKM [G5C], the protein stability index falls from 3.95 to 1.79.

First: SARQHELQKVLLMLVDGIDPNFKM [G5H]
Second: SARQAELQKVLLMLVDGIDPNFKM [G5A]
The protein stability index of the first is lower: 1.97 for the first, 2.65 for the second.

Compared with SARQNELQKVLLMLVDGIDPNFKM [G5N], SARQQELQKVLLMLVDGIDPNFKM [G5Q] is lower in protein stability index: 2.26 for the first, 1.93 for the second.

First: SARQEELQKVLLMLVDGIDPNFKM [G5E]
Second: SARQRELQKVLLMLVDGIDPNFKM [G5R]
The protein stability index of the first is lower: 1.59 for the first, 3.6 for the second.
